According to patent US20190045761:

Columns and labels:
[1] = system: FAH 5.3 TALEN right (3') (synthetic construct); assay: cell_activity; settings: TALEN pair with HDR oligo (HindIII) in RG-KO pig fibroblasts, 16 bp spacer
[2] = system: FAH 5.3 TALEN left (5') (synthetic construct); assay: cell_activity; settings: TALEN pair with HDR oligo (HindIII) in RG-KO pig fibroblasts, 16 bp spacer

Row | Sequence | activity (% of colonies positive) [1] | activity (% of colonies positive) [2]
1 | GGTATGTCCCAGACC (double strand) [FAH 5.3 TALEN 3' half-site] | 5.3 | 
2 | TCAGGGGCAAGGAGACT (double strand) [FAH 5.3 TALEN 5' half-site] |  | 5.3
